Results as given in PMC9817314, “Detection of human annexin A1 as the novel N-terminal tag for separation and purification handle” (Microbial Cell Factories, 2023).

B1: MBP-hS100A11 (human S100A11 fused to maltose binding protein) (natural protein, UniProt P31949 2-105, looked up)
chain: AKISSPTETERCIESLIAVFQKYAGKDGYNYTLSKTEFLSFMNTELAAFTKNQKDPGVLDRMMKKLDTNSDGQLDFSEFLNLIGGLAMACHDSFLKAVPSQKRT
notes: human S100A11, amplified from a human cDNA library; also called MBP-S100A11; immobilized S100A11; source: E. coli, soluble; immobilised on amylose resin and washed; not shown: MBP, N-terminal, kept

Legend:
S100A11 (Homo sapiens) = S100A11 (Homo sapiens) (UniProt P31949); conditions: cited from earlier work
[1] = biological target: T1, human annexin A1 (hanA1) tagged emerald green fluorescent protein (EmGFP) (human, UniProt P04083 3-346); assay: pull-down; MBP-hS100A11 immobilised on amylose resin; hanA1-EmGFP in crude extract (clear lysate) in buffer B (20 mM Tris-HCl pH 8.0, 10% glycerol, 1 mM CaCl2), room temperature, 2 h; washed with buffer B containing 50 mM NaCl; eluted with buffer C (buffer A with 5 mM EDTA-Na2); SDS-PAGE; conditions: one partner purified
T1 construct: human annexin A1, amplified from a human brain cDNA library; EmGFP (reporter, detected by fluorescence) follows after the BamH I / Bgl II junction; also called hanA1-EmGFP; HanA1-EmGFP; source: E. coli BL21(DE3); in crude extract (clear lysate), or separated by CaCl2 precipitation and EDTA-Na2 resolubilisation; not shown: EmGFP, C-terminal, kept
T1 sequence (looked up): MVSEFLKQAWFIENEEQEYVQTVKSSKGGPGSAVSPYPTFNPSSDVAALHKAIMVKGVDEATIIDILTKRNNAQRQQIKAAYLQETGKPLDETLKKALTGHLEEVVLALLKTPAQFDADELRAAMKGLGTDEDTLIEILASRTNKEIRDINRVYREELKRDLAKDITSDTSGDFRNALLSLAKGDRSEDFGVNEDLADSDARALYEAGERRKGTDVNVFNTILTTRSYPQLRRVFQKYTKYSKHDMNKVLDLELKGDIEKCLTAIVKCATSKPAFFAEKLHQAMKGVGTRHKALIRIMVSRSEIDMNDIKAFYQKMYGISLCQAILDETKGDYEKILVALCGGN

Row | Molecule | Kd (S100A11 (Homo sapiens)) [µM] | binding result [1]
1 | annexin I N-terminal peptide (from UniProt P04083) | 5 | 
2 | B1 |  | binds
